Each binder was assayed against T1, soluble human FcRn complexed with β2-microglobulin (human, UniProt P61769 21-119, limits assumed) (assay: Biacore SPR, pH 7.0;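 further: test antibodies captured on a Protein L chip with human FcRn flowed over as analyte, KD obtained as the ratio of dissociation to association rate constants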).
T1 construct: also called hFcRn

Row | Kd | Binder
1 | 77.5 nM | IgG1-F1331 (antibody, EU numbering; copies: 2 + 2) heavy: QVQLQESGPGLVKPSETLSLTCAVSGHSISHDHAWSWVRQPPGEGLEWIGFISYSGITNYNPSLQGRVTISRDNSKNTLYLQMNSLRAEDTAVYYCARSLARTTAMDYWGEGTLVTVSSASTKGPSVFPLAPSSKSTSGGTAALGCLVKDYFPEPVTVSWNSGALTSGVHTFPAVLQSSGLYSLSSVVTVPSSSLGTQTYICNVNHKPSNTKVDKKVEPKSCDKTHTCPPCPAPELRRGPKVFLFPPKPKDTLYITREPEVTCVVVDVSHEDPEVKFNWYVDGVEVHNAKTKPREEQYNSTYRVVSVLTVLHQDWLNGKEYKCKVSNKALPAPIEKTISKAKGQPREPQVYTLPPSRDELTKNQVSLTCLVKGFYPSDIAVEWESNGQPENNYKTTPPVLDSDGSFFLYSKLTVDKSRWQQGNVFSCSVMHEALHYHVTRKELSLSP light: not shown
2 | 201 nM | IgG1-F1343 (antibody, EU numbering; copies: 2 + 2) heavy: QVQLQESGPGLVKPSETLSLTCAVSGHSISHDHAWSWVRQPPGEGLEWIGFISYSGITNYNPSLQGRVTISRDNSKNTLYLQMNSLRAEDTAVYYCARSLARTTAMDYWGEGTLVTVSSASTKGPSVFPLAPSSKSTSGGTAALGCLVKDYFPEPVTVSWNSGALTSGVHTFPAVLQSSGLYSLSSVVTVPSSSLGTQTYICNVNHKPSNTKVDKKVEPKSCDKTHTCPPCPAPELRGGPKVFLFPPKPKDTLYITREPEVTCVVVDVSHEDPEVKFNWYVDGVEVHNAKTKPREEQYNSTYRVVSVLTVLHQDWLNGKEYKCKVSNKALPAPIEKTISKAKGQPREPQVYTLPPSRDELTKNQVSLTCLVKGFYPSDIAVEWESNGQPENNYKTTPPVLDSDGSFFLYSKLTVDKSRWQQGNVFSCSVMHEALHYHTTKKELSLSP light: not shown
3 | 104 nM | IgG1-F1338 (antibody, EU numbering; copies: 2 + 2) heavy: QVQLQESGPGLVKPSETLSLTCAVSGHSISHDHAWSWVRQPPGEGLEWIGFISYSGITNYNPSLQGRVTISRDNSKNTLYLQMNSLRAEDTAVYYCARSLARTTAMDYWGEGTLVTVSSASTKGPSVFPLAPSSKSTSGGTAALGCLVKDYFPEPVTVSWNSGALTSGVHTFPAVLQSSGLYSLSSVVTVPSSSLGTQTYICNVNHKPSNTKVDKKVEPKSCDKTHTCPPCPAPELRGGPKVFLFPPKPKDTLYISREPEVTCVVVDVSHEDPEVKFNWYVDGVEVHNAKTKPREEQYNSTYRVVSVLTVLHQDWLNGKEYKCKVSNKALPAPIEKTISKAKGQPREPQVYTLPPSRDELTKNQVSLTCLVKGFYPSDIAVEWESNGQPENNYKTTPPVLDSDGSFFLYSKLTVDKSRWQQGNVFSCSVMHEALDYHVTKKELSLSP light: not shown
4 | 55.2 nM | IgG1-F1348 (antibody, EU numbering; copies: 2 + 2) heavy: QVQLQESGPGLVKPSETLSLTCAVSGHSISHDHAWSWVRQPPGEGLEWIGFISYSGITNYNPSLQGRVTISRDNSKNTLYLQMNSLRAEDTAVYYCARSLARTTAMDYWGEGTLVTVSSASTKGPSVFPLAPSSKSTSGGTAALGCLVKDYFPEPVTVSWNSGALTSGVHTFPAVLQSSGLYSLSSVVTVPSSSLGTQTYICNVNHKPSNTKVDKKVEPKSCDKTHTCPPCPAPELRRGPKVFLFPPKPKDTLYITREPEVTCVVVDVSHEDPEVKFNWYVDGVEVHNAKTKPREEQYNSTYRVVSVLTVLHQDWLNGKEYKCKVSNKALPAPIEKTISKAKGQPREPQVYTLPPSRDELTKNQVSLTCLVKGFYPSDIAVEWESNGQPENNYKTTPPVLDSDGSFFLYSKLTVDKSRWQQGNVFSCSVMHEALHYHVTKKELSLSP light: not shown
5 | 74.1 nM | IgG1-F1337 (antibody, EU numbering; copies: 2 + 2) heavy: QVQLQESGPGLVKPSETLSLTCAVSGHSISHDHAWSWVRQPPGEGLEWIGFISYSGITNYNPSLQGRVTISRDNSKNTLYLQMNSLRAEDTAVYYCARSLARTTAMDYWGEGTLVTVSSASTKGPSVFPLAPSSKSTSGGTAALGCLVKDYFPEPVTVSWNSGALTSGVHTFPAVLQSSGLYSLSSVVTVPSSSLGTQTYICNVNHKPSNTKVDKKVEPKSCDKTHTCPPCPAPELRGGPKVFLFPPKPKDTLYISREPEVTCVVVDVSHEDPEVKFNWYVDGVEVHNAKTKPREEQYNSTYRVVSVLTVLHQDWLNGKEYKCKVSNKALPAPIEKTISKAKGQPREPQVYTLPPSRDELTKNQVSLTCLVKGFYPSDIAVEWESNGQPENNYKTTPPVLDSDGSFFLYSKLTVDKSRWQQGNVFSCSVMHEALHYHVTKKELSLSP light: not shown
6 | 105 nM | IgG1-F1345 (antibody, EU numbering; copies: 2 + 2) heavy: QVQLQESGPGLVKPSETLSLTCAVSGHSISHDHAWSWVRQPPGEGLEWIGFISYSGITNYNPSLQGRVTISRDNSKNTLYLQMNSLRAEDTAVYYCARSLARTTAMDYWGEGTLVTVSSASTKGPSVFPLAPSSKSTSGGTAALGCLVKDYFPEPVTVSWNSGALTSGVHTFPAVLQSSGLYSLSSVVTVPSSSLGTQTYICNVNHKPSNTKVDKKVEPKSCDKTHTCPPCPAPELRRGPKVFLFPPKPKDTLYISRTPEVTCVVVDVSHEDPEVKFNWYVDGVEVHNAKTKPREEQYNSTYRVVSVLTVLHQDWLNGKEYKCKVSNKALPAPIEKTISKAKGQPREPQVYTLPPSRDELTKNQVSLTCLVKGFYPSDIAVEWESNGQPENNYKTTPPVLDSDGSFFLYSKLTVDKSRWQQGNVFSCSVMHEALHYHVTKKELSLSP light: not shown
7 | 71.8 nM | IgG1-F1336 (antibody, EU numbering; copies: 2 + 2) heavy: QVQLQESGPGLVKPSETLSLTCAVSGHSISHDHAWSWVRQPPGEGLEWIGFISYSGITNYNPSLQGRVTISRDNSKNTLYLQMNSLRAEDTAVYYCARSLARTTAMDYWGEGTLVTVSSASTKGPSVFPLAPSSKSTSGGTAALGCLVKDYFPEPVTVSWNSGALTSGVHTFPAVLQSSGLYSLSSVVTVPSSSLGTQTYICNVNHKPSNTKVDKKVEPKSCDKTHTCPPCPAPELRRGPKVFLFPPKPKDTLYISREPEVTCVVVDVSHEDPEVKFNWYVDGVEVHNAKTKPREEQYNSTYRVVSVLTVLHQDWLNGKEYKCKVSNKALPAPIEKTISKAKGQPREPQVYTLPPSRDELTKNQVSLTCLVKGFYPSDIAVEWESNGQPENNYKTTPPVLDSDGSFFLYSKLTVDKSRWQQGNVFSCSVMHEALHYHVTKKDLSLSP light: not shown
8 | 322 nM | IgG1-F1341 (antibody, EU numbering; copies: 2 + 2) heavy: QVQLQESGPGLVKPSETLSLTCAVSGHSISHDHAWSWVRQPPGEGLEWIGFISYSGITNYNPSLQGRVTISRDNSKNTLYLQMNSLRAEDTAVYYCARSLARTTAMDYWGEGTLVTVSSASTKGPSVFPLAPSSKSTSGGTAALGCLVKDYFPEPVTVSWNSGALTSGVHTFPAVLQSSGLYSLSSVVTVPSSSLGTQTYICNVNHKPSNTKVDKKVEPKSCDKTHTCPPCPAPELRGGPKVFLFPPKPKDTLYITRTPEVTCVVVDVSHEDPEVKFNWYVDGVEVHNAKTKPREEQYNSTYRVVSVLTVLHQDWLNGKEYKCKVSNKALPAPIEKTISKAKGQPREPQVYTLPPSRDELTKNQVSLTCLVKGFYPSDIAVEWESNGQPENNYKTTPPVLDSDGSFFLYSKLTVDKSRWQQGNVFSCSVMHEALHYHTTKKELSLSP light: not shown
9 | 85.9 nM | IgG1-F1346 (antibody, EU numbering; copies: 2 + 2) heavy: QVQLQESGPGLVKPSETLSLTCAVSGHSISHDHAWSWVRQPPGEGLEWIGFISYSGITNYNPSLQGRVTISRDNSKNTLYLQMNSLRAEDTAVYYCARSLARTTAMDYWGEGTLVTVSSASTKGPSVFPLAPSSKSTSGGTAALGCLVKDYFPEPVTVSWNSGALTSGVHTFPAVLQSSGLYSLSSVVTVPSSSLGTQTYICNVNHKPSNTKVDKKVEPKSCDKTHTCPPCPAPELRRGPKVFLFPPKPKDTLYITRTPEVTCVVVDVSHEDPEVKFNWYVDGVEVHNAKTKPREEQYNSTYRVVSVLTVLHQDWLNGKEYKCKVSNKALPAPIEKTISKAKGQPREPQVYTLPPSRDELTKNQVSLTCLVKGFYPSDIAVEWESNGQPENNYKTTPPVLDSDGSFFLYSKLTVDKSRWQQGNVFSCSVMHEALHYHVTKKELSLSP light: not shown
10 | 396 nM | IgG1-F1344 (antibody, EU numbering; copies: 2 + 2) heavy: QVQLQESGPGLVKPSETLSLTCAVSGHSISHDHAWSWVRQPPGEGLEWIGFISYSGITNYNPSLQGRVTISRDNSKNTLYLQMNSLRAEDTAVYYCARSLARTTAMDYWGEGTLVTVSSASTKGPSVFPLAPSSKSTSGGTAALGCLVKDYFPEPVTVSWNSGALTSGVHTFPAVLQSSGLYSLSSVVTVPSSSLGTQTYICNVNHKPSNTKVDKKVEPKSCDKTHTCPPCPAPELRGGPKVFLFPPKPKDTLYISRTPEVTCVVVDVSHEDPEVKFNWYVDGVEVHNAKTKPREEQYNSTYRVVSVLTVLHQDWLNGKEYKCKVSNKALPAPIEKTISKAKGQPREPQVYTLPPSRDELTKNQVSLTCLVKGFYPSDIAVEWESNGQPENNYKTTPPVLDSDGSFFLYSKLTVDKSRWQQGNVFSCSVMHEALHYHTTKKELSLSP light: not shown
11 | 104 nM | IgG1-F1334 (antibody, EU numbering; copies: 2 + 2) heavy: QVQLQESGPGLVKPSETLSLTCAVSGHSISHDHAWSWVRQPPGEGLEWIGFISYSGITNYNPSLQGRVTISRDNSKNTLYLQMNSLRAEDTAVYYCARSLARTTAMDYWGEGTLVTVSSASTKGPSVFPLAPSSKSTSGGTAALGCLVKDYFPEPVTVSWNSGALTSGVHTFPAVLQSSGLYSLSSVVTVPSSSLGTQTYICNVNHKPSNTKVDKKVEPKSCDKTHTCPPCPAPELRRGPKVFLFPPKPKDTLYISRTPEVTCVVVDVSHEDPEVKFNWYVDGVEVHNAKTKPREEQYNSTYRVVSVLTVLHQDWLNGKEYKCKVSNKALPAPIEKTISKAKGQPREPQVYTLPPSRDELTKNQVSLTCLVKGFYPSDIAVEWESNGQPENNYKTTPPVLDSDGSFFLYSKLTVDKSRWQQGNVFSCSVMHEALHYHVTKKDLSLSP light: not shown
12 | 71.4 nM | IgG1-F1347 (antibody, EU numbering; copies: 2 + 2) heavy: QVQLQESGPGLVKPSETLSLTCAVSGHSISHDHAWSWVRQPPGEGLEWIGFISYSGITNYNPSLQGRVTISRDNSKNTLYLQMNSLRAEDTAVYYCARSLARTTAMDYWGEGTLVTVSSASTKGPSVFPLAPSSKSTSGGTAALGCLVKDYFPEPVTVSWNSGALTSGVHTFPAVLQSSGLYSLSSVVTVPSSSLGTQTYICNVNHKPSNTKVDKKVEPKSCDKTHTCPPCPAPELRRGPKVFLFPPKPKDTLYISREPEVTCVVVDVSHEDPEVKFNWYVDGVEVHNAKTKPREEQYNSTYRVVSVLTVLHQDWLNGKEYKCKVSNKALPAPIEKTISKAKGQPREPQVYTLPPSRDELTKNQVSLTCLVKGFYPSDIAVEWESNGQPENNYKTTPPVLDSDGSFFLYSKLTVDKSRWQQGNVFSCSVMHEALHYHVTKKELSLSP light: not shown
13 | 251 nM | IgG1-F1342 (antibody, EU numbering; copies: 2 + 2) heavy: QVQLQESGPGLVKPSETLSLTCAVSGHSISHDHAWSWVRQPPGEGLEWIGFISYSGITNYNPSLQGRVTISRDNSKNTLYLQMNSLRAEDTAVYYCARSLARTTAMDYWGEGTLVTVSSASTKGPSVFPLAPSSKSTSGGTAALGCLVKDYFPEPVTVSWNSGALTSGVHTFPAVLQSSGLYSLSSVVTVPSSSLGTQTYICNVNHKPSNTKVDKKVEPKSCDKTHTCPPCPAPELRGGPKVFLFPPKPKDTLYISREPEVTCVVVDVSHEDPEVKFNWYVDGVEVHNAKTKPREEQYNSTYRVVSVLTVLHQDWLNGKEYKCKVSNKALPAPIEKTISKAKGQPREPQVYTLPPSRDELTKNQVSLTCLVKGFYPSDIAVEWESNGQPENNYKTTPPVLDSDGSFFLYSKLTVDKSRWQQGNVFSCSVMHEALHYHTTKKELSLSP light: not shown
